B1: Sb_ENT1#1 (VHH)
VHH: QVQLVESGGGLVQAGGSLRLSCAASGFPVEYNTMYWYRQAPGKEREWVATIESWGWFTWYADSVKGRFTISRDNAKNTVYLQMNSLKPEDTAVYYCEVGVGHNYAGRGTQVTVS
notes: concave sybody; source: purified (Ni-NTA, SEC); not shown: Myc, C-terminal, kept
B2: Sb_GlyT1#1 (VHH)
VHH: QVQLVESGGGLVQAGGSLRLSCAASGFPVYYSHMLWYRQAPGKEREWVAAIKSLGAKTWYADSVKGRFTISRDNAKNTVYLQMNSLKPEDTAVYYCTVGVGTNYYGQGTQVTVS
B3: Sb_GlyT1#2 (VHH)
VHH: B2 VHH with Y31H, S32R, H33S, L54N, K57G, Y105W
B4: Sb_GlyT1#3 (VHH)
VHH: QVQLVESGGGLVQAGGSLRLSCAASGFPVWNNGMAWYRQAPGKEREWVAAIASRGRSTVYADSVKGRFTISRDNAKNTVYLQMNSLKPEDTAVYYCYVNVGSHYEGQGTQVTVS
B5: Sb_GlyT1#6 (VHH)
VHH: QVQLVESGGGLVQAGGSLRLSCAASGFPVVYYEMYWYRQAPGKEREWVAAITSSGWYTHYADSVKGRFTISRDNAKNTVYLQMNSLKPEDTAVYYCNVKDWGASWKQYDYWGQGTQVTVS
B6: Sb_GlyT1#7 (VHH)
VHH: B5 VHH with V30Y, Y31A, T52S, W56T, Y57W, T58A, H59G, K106A, Q107Y
B7: Sb_GlyT1#5 (VHH)
VHH: QVQLVESGGGLVQAGGSLRLSCAASGFPVMNRWMAWYRQAPGKEREWVAAVASYGETTRYADSVKGRFTISRDNAKNTVYLQMNSLKPEDTAVYYCNVKDWGWWTRAYDYWGQGTQVTVS
B8: Sb_GlyT1#4 (VHH)
VHH: QVQLVESGGGLVQAGGSLRLSCAASGFPVYAYVMAWYRQAPGKEREWVAAIKSQGVSTYYADSVKGRFTISRDNAKNTVYLQMNSLKPEDTAVYYCYVYVGTSYTGQGTQVTVS

Numbering of substitutions follows the chain as printed.

The results in this text go back to publication PMC5967865 (eLife, 2018).

The first data set deals with T1, Human ENT1(2–456) (Homo sapiens, UniProt Q99808, biotin on the Avi-tag (in vivo, co-transfected E. coli BirA); glycosylation reduced with PNGaseF and Endo-alpha-N-acetylgalactosaminidase).
T1 construct: human equilibrative nucleoside transporter 1 (ENT1, SLC29A1), residues 2-456, called wild-type, full length protein; also called equilibrative nucleoside transporter 1; SLC29A1; source: HEK293 freestyle cells, transient transfection, purified (TALON, SEC) in LMNG with NBTI; not shown: His10, N-terminal, cleaved; GFP (enhanced), N-terminal, cleaved; Avi, N-terminal, kept
T1 sequence (Q99808 2-456): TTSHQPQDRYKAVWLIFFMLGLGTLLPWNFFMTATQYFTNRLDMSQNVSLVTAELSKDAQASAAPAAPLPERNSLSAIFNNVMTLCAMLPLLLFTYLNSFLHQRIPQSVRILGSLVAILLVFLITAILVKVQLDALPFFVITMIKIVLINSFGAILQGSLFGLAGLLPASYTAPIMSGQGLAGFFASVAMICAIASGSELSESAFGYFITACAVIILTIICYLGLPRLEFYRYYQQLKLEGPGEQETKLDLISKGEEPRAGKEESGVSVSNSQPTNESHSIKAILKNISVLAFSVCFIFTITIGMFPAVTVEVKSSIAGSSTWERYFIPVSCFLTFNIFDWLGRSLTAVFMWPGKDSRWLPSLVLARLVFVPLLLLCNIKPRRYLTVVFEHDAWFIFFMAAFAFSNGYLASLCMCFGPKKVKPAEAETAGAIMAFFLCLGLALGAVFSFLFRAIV
Put plainly: SPR; Biacore T200, 18°C; biotinylated ENT1 (about 1000 RU) on SA sensor, sybody up to 475 nM as analyte; 20 mM HEPES pH 7.5, 150 mM NaCl, 0.001% LMNG, 1.25 µM DOPS; 50 µl/min; 1:1 model. Particulars: both partners purified.
The molecule B1 returned a dissociation constant Kd of 40 nM, a koff of 0.00744 s⁻¹ and a kon of 186000 M⁻¹ s⁻¹.

Another data set addresses Human GlyT1 (human) (UniProt P48067). Put plainly: SPR; Biacore T200, 18°C; biotinylated GlyT1 (about 300 RU) on SA sensor, sybody up to 2 µM as analyte; 20 mM Citrate pH 6.4, 150 mM NaCl, 0.004% LMNG; 50 µl/min; 1:1 model; single cycle for Sb_GlyT1#6; KD from kinetics or from equilibrium as the column says.
Settings: not given
As for B2, the Kd turned out to be 307 nM, the koff is 0.0577 s⁻¹ and the kon amounted to 188000 M⁻¹ s⁻¹.

Consider B3, for which the dissociation constant (Kd) came out at 2520 nM, the koff worked out at 0.0928 s⁻¹ and the kon was 36800 M⁻¹ s⁻¹.

With B4, the Kd was found to be 154 nM.

B5 had a Kd of 0.494 nM, a koff of 4.99e-05 s⁻¹ and an association rate constant (kon) of 100000 M⁻¹ s⁻¹.

The molecule B6 showed a Kd of 9.18 nM, a koff of 0.000185 s⁻¹ and an on-rate constant (kon) of 20100 M⁻¹ s⁻¹.

Molecule B7 returned a Kd of 81.9 nM, a koff of 0.0372 s⁻¹ and a kon of 454000 M⁻¹ s⁻¹.

B8 showed a Kd of 476 nM.

A further data set concerns the target GFP [GFP: P42212]. Nature of the data set: pull-down; nanobody or sybody displayed on ribosomes (PUREfrexSS; 10^6 mRNA of 3K1K spiked into 10^12 mRNA of the non-randomized convex sybody), pulled down with biotinylated GFP or MBP immobilized on magnetic beads; retrieved mRNA reverse transcribed and quantified by qPCR against the input mRNA.
Settings: not given
For the molecule 3K1K nanobody (VHH), the mRNA recovery (percent of input mRNA) worked out at 84.6%.

Another data set has as its target Human GlyT1 (human) (UniProt P48067).
Experiment: not given
Settings: not given
For the molecule B2, the SPA signal (fold increase) of [3H]-Org24598 binding at 19°C is 1.2 fold and the ΔTm(SPA-TS): shift of the melting temperature of GlyT1, read by binding of [3H]-Org24598 was found to be 0.9 °C.

Consider B3, for which the SPA signal (fold increase) of [3H]-Org24598 binding at 19°C was determined as 1.1 fold and the ΔTm(SPA-TS): shift of the melting temperature of GlyT1, read by binding of [3H]-Org24598 was 1.5 °C.

For B4, the SPA signal (fold increase) of [3H]-Org24598 binding at 19°C came out at 1.1 fold and the ΔTm(SPA-TS): shift of the melting temperature of GlyT1, read by binding of [3H]-Org24598 worked out at 1.7 °C.

As to B5, the SPA signal (fold increase) of [3H]-Org24598 binding at 19°C came out at 1.6 fold and the ΔTm(SPA-TS): shift of the melting temperature of GlyT1, read by binding of [3H]-Org24598 was 8.8 °C.

Turning to B6, the SPA signal (fold increase) of [3H]-Org24598 binding at 19°C is 1.8 fold and the ΔTm(SPA-TS): shift of the melting temperature of GlyT1, read by binding of [3H]-Org24598 was 10 °C.

B7: the SPA signal (fold increase) of [3H]-Org24598 binding at 19°C was 1.5 fold and the ΔTm(SPA-TS): shift of the melting temperature of GlyT1, read by binding of [3H]-Org24598 stood at 2.6 °C.

For the molecule B8, the SPA signal (fold increase) of [3H]-Org24598 binding at 19°C was 1.5 fold and the ΔTm(SPA-TS): shift of the melting temperature of GlyT1, read by binding of [3H]-Org24598 was 2.1 °C.

A further data set addresses T2, human GlyT1 (Homo sapiens, UniProt P48067).
T2 construct: gene SLC6A9; Sf9 cells; LMNG/CHS; purified with Cmpd1
T2 sequence (P48067 1-706): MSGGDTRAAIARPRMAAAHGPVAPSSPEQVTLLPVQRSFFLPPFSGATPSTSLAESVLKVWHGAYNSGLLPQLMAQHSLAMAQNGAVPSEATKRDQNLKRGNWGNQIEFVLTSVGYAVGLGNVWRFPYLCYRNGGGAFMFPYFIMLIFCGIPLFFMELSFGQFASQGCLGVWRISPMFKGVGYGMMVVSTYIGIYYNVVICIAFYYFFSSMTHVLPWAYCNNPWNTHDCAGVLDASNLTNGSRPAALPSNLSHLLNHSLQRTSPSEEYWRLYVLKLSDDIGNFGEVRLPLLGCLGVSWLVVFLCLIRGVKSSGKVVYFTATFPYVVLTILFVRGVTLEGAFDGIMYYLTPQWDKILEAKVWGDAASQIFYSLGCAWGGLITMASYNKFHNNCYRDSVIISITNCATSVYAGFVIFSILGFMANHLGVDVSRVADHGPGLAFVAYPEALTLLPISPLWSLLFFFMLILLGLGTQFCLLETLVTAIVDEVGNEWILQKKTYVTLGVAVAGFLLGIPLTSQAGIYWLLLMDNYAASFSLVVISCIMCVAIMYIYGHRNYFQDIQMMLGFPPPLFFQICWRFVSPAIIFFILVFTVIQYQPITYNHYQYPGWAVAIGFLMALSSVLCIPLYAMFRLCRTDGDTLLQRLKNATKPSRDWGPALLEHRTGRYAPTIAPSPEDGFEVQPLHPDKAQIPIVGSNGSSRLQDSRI
Experiment: not given
The class given is binding. As to conditions: 6 nM [3H]-Org24598, labelled compound, 4°C, LMNG; citrate pH 6.4 (buffer assignment by 'respectively'); with and without sybodies.
`CN(CC[C@@H](Oc1ccc(C(F)(F)F)cc1)c1ccccc1)CC(=O)O` [Org24598]: the “scintillation proximity assay (SPA-TS) with [3H]-Org24598” value is reported as “SPA-TS analysis using the commercially available tritiated inhibitor Org24598”.

Another data set has as its target T1, Human ENT1(2–456). Nature of the data set: cell-based or functional assay.
Settings: not given
As to B1, the “SPA signal (fold increase) of [3H]-NBTI binding at 30.1°C” value worked out at 7 fold and the “ΔTm(SPA-TS): shift of the apparent melting temperature of ENT1, read by binding of [3H]-NBTI” value came out at 6.1 °C.
